The supplement of paper PMC9170038

Tested on: K4 kissing-loop RNA reporter
Experiment: apparent KD of K4 kissing-loop reporter; higher = weaker reporter binding
Settings: Eterna round: R107
Protocol: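 RNA-MaP round R107: designed RNA switches with theophylline, tryptophan, arginine or FMN aptamers are transcribed on-chip within common flanks. They are titrated with a labelled K4 kissing-loop RNA reporter in RNA-MaP buffer (100 mM Tris pH 7.5, 80 mM KCl, 4 mM MgCl2), without ligand or with the indicated ligand. Median apparent KD per design.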

[1] = input ligand: theophylline 20 uM
[2] = input ligand: tryptophan 2.4 mM
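Further: bound reporter read as fluorescence of individual clusters on recovered sequencing chips by microscopy, with normalized cluster intensities fitted with a binding model.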

GUGCAGUGAUGUUGCACGAGGAAAGACGAUACCAGCCGUAAAUAAGGCCCUUGGCAGCGUAGGCUAGCAUAAGGUAUGCUAGUCC [Atesermace]
apparent KD of K4 kissing-loop reporter (input ligand: FMN 200 uM): 0.117 µM
apparent KD of K4 kissing-loop reporter (input ligand: arginine 13.2 mM): 0.109 µM
apparent KD of K4 kissing-loop reporter (input ligand: none): 0.108 µM
apparent KD of K4 kissing-loop reporter [1]: 0.0955 µM
apparent KD of K4 kissing-loop reporter [2]: 0.1 µM

GUGCGGCUAGUGAUGUUGGUUGUGUGGGAAGGAGCGCAGAUACAUGCAGGUAGGUCGCCCACACCUCUGAAAGGAGGCUAAUUCA [KL-SSArg-A15]
apparent KD of K4 kissing-loop reporter (input ligand: FMN 200 uM): 0.418 µM
apparent KD of K4 kissing-loop reporter (input ligand: arginine 13.2 mM): 0.33 µM
apparent KD of K4 kissing-loop reporter (input ligand: none): 0.411 µM
apparent KD of K4 kissing-loop reporter [1]: 0.325 µM
apparent KD of K4 kissing-loop reporter [2]: 0.35 µM

GUGCGGUGGAGGCUACCGCUACUCUGAGAAGGAGCGCAGAAGACUGCAGGUAGGUCGCUUAGAGCUUGCAGUGAUGUUGCAAGUU [KL-SSArg-A18]
apparent KD of K4 kissing-loop reporter (input ligand: FMN 200 uM): 0.134 µM
apparent KD of K4 kissing-loop reporter (input ligand: arginine 13.2 mM): 0.135 µM
apparent KD of K4 kissing-loop reporter (input ligand: none): 0.183 µM
apparent KD of K4 kissing-loop reporter [1]: 0.156 µM
apparent KD of K4 kissing-loop reporter [2]: 0.176 µM

GUGGGCUCGGGAGGAUAUGAGUCUAGUGAUGUUAGGCGGUCCAUGCGCGUGGCGCGUUAUGCCCUUUUAGAAGGCCCGAGCCCUC [#2 Exclusion - FMN B Attempt #24 (HarryS)]
apparent KD of K4 kissing-loop reporter (input ligand: FMN 200 uM): 0.0998 µM
apparent KD of K4 kissing-loop reporter (input ligand: arginine 13.2 mM): 0.0688 µM
apparent KD of K4 kissing-loop reporter (input ligand: none): 0.0901 µM
apparent KD of K4 kissing-loop reporter [1]: 0.0864 µM
apparent KD of K4 kissing-loop reporter [2]: 0.0853 µM

GUGUAGAAGUGAGGAUAUCGAUUUAAGAAUAAGCAGUGAUGUUGCAAGCAGGAGGAAUAAGAUUAACGAGAAGGCGUGGAUAUAG [FMN B Exclusion; Euphoria Solution]
apparent KD of K4 kissing-loop reporter (input ligand: FMN 200 uM): 0.104 µM
apparent KD of K4 kissing-loop reporter (input ligand: arginine 13.2 mM): 0.11 µM
apparent KD of K4 kissing-loop reporter (input ligand: none): 0.125 µM
apparent KD of K4 kissing-loop reporter [1]: 0.141 µM
apparent KD of K4 kissing-loop reporter [2]: 0.0991 µM

GUGUGACUAGUGAUGUUGGUUGCGUGGGAAGGAGCGCAGUAAAAUGCAGGUAGGUCGCCCGUAUCUCUGAUAAAAGAUUAAUUCA [KL-SSArg-A10]
apparent KD of K4 kissing-loop reporter (input ligand: FMN 200 uM): 0.181 µM
apparent KD of K4 kissing-loop reporter (input ligand: arginine 13.2 mM): 0.128 µM
apparent KD of K4 kissing-loop reporter (input ligand: none): 0.158 µM
apparent KD of K4 kissing-loop reporter [1]: 0.137 µM
apparent KD of K4 kissing-loop reporter [2]: 0.153 µM

GUGUGUGUCGGAGGAUAUGCGGUGGGUGUGGGCGGAUUAGUGAUGUUGGUUGUGGUGGUGGUGGGUGUAGAAGGUUGGUGUGUGU [RHig 3/7 C]
apparent KD of K4 kissing-loop reporter (input ligand: FMN 200 uM): 0.71 µM
apparent KD of K4 kissing-loop reporter (input ligand: arginine 13.2 mM): 0.35 µM
apparent KD of K4 kissing-loop reporter (input ligand: none): 0.738 µM
apparent KD of K4 kissing-loop reporter [1]: 0.4 µM
apparent KD of K4 kissing-loop reporter [2]: 0.444 µM

GUUACGCAUGGAAGGAGCGCACUCCGGUUGAUCGACACAGUGAUGUUGUGGUUCAUUCGAAUGCAGGUAGGUCGCCAUGUGUAAC [Ex Arginine B K4 15]
apparent KD of K4 kissing-loop reporter (input ligand: FMN 200 uM): 0.808 µM
apparent KD of K4 kissing-loop reporter (input ligand: arginine 13.2 mM): 0.593 µM
apparent KD of K4 kissing-loop reporter (input ligand: none): 0.847 µM
apparent KD of K4 kissing-loop reporter [1]: 0.886 µM
apparent KD of K4 kissing-loop reporter [2]: 0.804 µM

GUUACGCAUGGAAGGAGCGCAGGCUCAACAAAUAGCUCAGUGAUGUUGAGCAUAUUAAAACUGCAGGUAGGUCGCCAUGUGUAAC [Ex Arginine B K4 23]
apparent KD of K4 kissing-loop reporter (input ligand: FMN 200 uM): 0.651 µM
apparent KD of K4 kissing-loop reporter (input ligand: arginine 13.2 mM): 0.547 µM
apparent KD of K4 kissing-loop reporter (input ligand: none): 0.657 µM
apparent KD of K4 kissing-loop reporter [1]: 0.671 µM
apparent KD of K4 kissing-loop reporter [2]: 0.588 µM

GUUACGCAUGGAAGGAGCGCUCUCCGGUUGAUUGACACAGUGAUGUUGUGAUUCUACCGUAAGCAGGUAGGUCGCCAUGUGUAAC [Ex Arginine B K4 13]
apparent KD of K4 kissing-loop reporter (input ligand: FMN 200 uM): 0.95 µM
apparent KD of K4 kissing-loop reporter (input ligand: arginine 13.2 mM): 0.809 µM
apparent KD of K4 kissing-loop reporter (input ligand: none): 1.21 µM
apparent KD of K4 kissing-loop reporter [1]: 1.05 µM
apparent KD of K4 kissing-loop reporter [2]: 0.921 µM

GUUAUAUAAAUAAGAAAUAAAAUAAGGGAAGGAGCGCCGAGAAAGGCAGGUAGGUCGCCCAGUGAUGUUGGGAUUAAUUAAUUAG
apparent KD of K4 kissing-loop reporter (input ligand: FMN 200 uM): 0.045 µM
apparent KD of K4 kissing-loop reporter (input ligand: arginine 13.2 mM): 0.0337 µM
apparent KD of K4 kissing-loop reporter (input ligand: none): 0.0393 µM
apparent KD of K4 kissing-loop reporter [1]: 0.0439 µM
apparent KD of K4 kissing-loop reporter [2]: 0.0371 µM

GUUGCAGCCCGUGAUACCAGCAUCGGUCGCCGGGUCCAGUGAUGUUGGGCUUGCGUUCUAUGCCCUUGGCAGCGCGGCCUGACAG [Qulaanar]
apparent KD of K4 kissing-loop reporter (input ligand: FMN 200 uM): 0.415 µM
apparent KD of K4 kissing-loop reporter (input ligand: arginine 13.2 mM): 0.104 µM
apparent KD of K4 kissing-loop reporter (input ligand: none): 0.174 µM
apparent KD of K4 kissing-loop reporter [1]: 0.393 µM
apparent KD of K4 kissing-loop reporter [2]: 0.415 µM

GUUUCAGUGAUGUUGGAAGGCGAGCGGGAUACCAGCCAAGACUCAGGCCCUUGGCAGCCCACAUAUCCCACGUAGAUAGUAGCUC [Same State - Theophylline A (Freestyle 14)]
apparent KD of K4 kissing-loop reporter (input ligand: FMN 200 uM): 0.161 µM
apparent KD of K4 kissing-loop reporter (input ligand: arginine 13.2 mM): 0.116 µM
apparent KD of K4 kissing-loop reporter (input ligand: none): 0.133 µM
apparent KD of K4 kissing-loop reporter [1]: 0.153 µM
apparent KD of K4 kissing-loop reporter [2]: 0.137 µM

GUUUUAUAAGAGGAUACCAGUACAAAUAAAGUACAUUAAUAGUAGAGUGAUGUUCUAAAGUACCCUUGGCAGCUUAGAUUAAGUU [ExTheophylB.E]
apparent KD of K4 kissing-loop reporter (input ligand: FMN 200 uM): 0.147 µM
apparent KD of K4 kissing-loop reporter (input ligand: arginine 13.2 mM): 0.236 µM
apparent KD of K4 kissing-loop reporter (input ligand: none): 0.17 µM
apparent KD of K4 kissing-loop reporter [1]: 0.252 µM
apparent KD of K4 kissing-loop reporter [2]: 0.116 µM

UAAAUUAAGCUUUGCUGAUUAAUAAGCGAUACCAGCAAAUAAUGAUGCCCUUGGCAGCGUUAUAAUCUAGUGAUGUUAGAUUAGU [Not much to say about this one]
apparent KD of K4 kissing-loop reporter (input ligand: FMN 200 uM): 0.0926 µM
apparent KD of K4 kissing-loop reporter (input ligand: arginine 13.2 mM): 0.106 µM
apparent KD of K4 kissing-loop reporter (input ligand: none): 0.101 µM
apparent KD of K4 kissing-loop reporter [1]: 0.103 µM
apparent KD of K4 kissing-loop reporter [2]: 0.085 µM

UAACCUGUAAACGAUACCAGUUGCAUGGAAACUUGGUACUAGCUAGUGAUGUUAGCAAGCAACCCUUGGCAGCGUCGCCUGACAG [theeternabot_sameState_KL_Theo_B_17]
apparent KD of K4 kissing-loop reporter (input ligand: FMN 200 uM): 0.308 µM
apparent KD of K4 kissing-loop reporter (input ligand: arginine 13.2 mM): 0.427 µM
apparent KD of K4 kissing-loop reporter (input ligand: none): 0.395 µM
apparent KD of K4 kissing-loop reporter [1]: 0.487 µM
apparent KD of K4 kissing-loop reporter [2]: 0.309 µM

UAACGACUCGGAAGGAGCGCGGUUUUAAAAGACUAAGGCCGAGUGAUGUUCGGAGAAGUCCCGCAGGUAGGUCGCCGGGUUGUGG [Ceororedar]
apparent KD of K4 kissing-loop reporter (input ligand: FMN 200 uM): 0.124 µM
apparent KD of K4 kissing-loop reporter (input ligand: arginine 13.2 mM): 0.138 µM
apparent KD of K4 kissing-loop reporter (input ligand: none): 0.13 µM
apparent KD of K4 kissing-loop reporter [1]: 0.199 µM
apparent KD of K4 kissing-loop reporter [2]: 0.148 µM

UAACGCCACUAAGAUACCAGACAUACAGAUCGGAUCUCCUAAAGAGAGUGAUGUUCUCUAGUCCCUUGGCAGCUUCUGGACUCCC [theeternabot_sameState_KL_Theo_B_9]
apparent KD of K4 kissing-loop reporter (input ligand: FMN 200 uM): 0.296 µM
apparent KD of K4 kissing-loop reporter (input ligand: arginine 13.2 mM): 0.356 µM
apparent KD of K4 kissing-loop reporter (input ligand: none): 0.406 µM
apparent KD of K4 kissing-loop reporter [1]: 0.396 µM
apparent KD of K4 kissing-loop reporter [2]: 0.291 µM
